Laboratory results as given in US9650421B2, “Self-assembled nanostructures” (NORTHWESTERN UNIVERSITY, priority 2011, dated 2017).
No end group written: not given here.

Legend:
[1] = test system: plasmid pBR322 DNA template; assay: TEM of peptide-plasmid DNA complexes; type: physicochemical; details: peptide 80 μM, plasmid 200 ng in 20 μl 25 mM Tris buffer pH 7.4
Description: A Complex between 3 (80 μM) and plasmid pbr322 (200 ng) in 20 μl of 25 mM Tris buffer (pH 7.4, 25 mM) B Complex between 1 (80 μM) and plasmid pbr322 (200 ng) in 20 μl of 25 mM Tris buffer (pH 7.4, 25 mM) C Complex between 2 (80 μM) and plasmid pbr322 (200 ng) in 20 μl of 25 mM Tris buffer (pH 7.4, 25 mM).
(§1) Complexes between nucleic acid templates and molecules 1, 2 and 3 were prepared under conditions where no more free DNA could be detected by gel electrophoresis and analyzed by transmission electron microscopy (TEM).

[2] = test system: double strand DNA fragments; assay: TEM of peptide-linear double strand DNA fragment complexes; type: physicochemical; details: for morphology of complexes with short DNA fragments: short ds DNA fragments (150, 300 bp); for morphology of complexes with DNA fragments above 300 bp: template length above 300 bp (600, 1200 bp)
Description: (§2) A Complex between 1 (80 μM) and ds 150 bp DNA fragment (200 ng) in 20 μl of 25 mM Tris buffer (pH 7.4, 25 mM) B Complex between 2 (80 μM) and ds 150 bp fragment (200 ng) in 20 μl of 25 mM Tris buffer (pH 7.4, 25 mM) C Complex between 1 (80 μM) and ds 300 bp DNA fragment (200 ng) in 20 μl of 25 mM Tris buffer (pH 7.4, 25 mM) D Complex between 2 (80 μM) and ds 300 bp fragment (200 ng) in 20 μl of 25 mM Tris buffer (pH 7.4, 25 mM).
as §2, with “600” for “150”, “1200” for “300”
as §1
The toroid proportion is insignificant as they are difficult to observe. Furthermore, the length of the complexes was homogenous, and around 706 nm in average. The calculated length of the PBR322 plasmid in a supercoiled conformation is 737 nm, very close to the observed dimensions. A slight shortening of the complexes can be explained by the contraction of DNA in the presence of multivalent counterions. Complexes of short double strand DNA fragments (25-1200 bp) have also been prepared and observed by TEM. (FIG. 8). The expected control of the dimensions of the complexes by template effect clearly obeys different regimes depending both of the length of the template and design of the artificial capsomers.

1200 bp DNA fragment = assay: Agarose gel shift assay of DNA binding; details: for peptide concentration at which no free DNA can be detected: 200 ng DNA in 20 μl; for peptide molecules for one molecule of DNA at full binding / peptides per base pair at full binding: at 20 μM peptide
Description: FIG. 6 depicts agarose gel electrophoresis of complexes of 2 and a 1200 bp DNA fragment. Each sample was prepared in a volume of 20 μl Well 1: 200 ng of 1200 bp DNA fragment; Well 2—10: 200 ng of 1200 bp DNA fragment+2 at a concentration of 2.5-5-7.5-10-15-20-25-35-45 μM.
The ability of compounds 1 and 2 to bind to nucleic acids was assayed by agarose gel shift assays where DNA was mixed with peptides 1 and 2 in different ratio. (FIG. 6). According to these studies at a peptide concentration of 20 μM, no free DNA can be detected in the sample. This corresponds to a ratio of approximately 1600 peptide molecules for one molecule of DNA, or 1.3 peptides per base pair.

nucleic acid = details: physiological nucleic acid ligand; cited from earlier work
[3] = Sedimentation velocity analytical ultracentrifugation; type: physicochemical
Description: Sedimentation velocity experiments were conducted in the same buffer as the equilibrium experiments. Velocity experiments were performed at 50 krpm and 23° C., scans were taken at 230 nm in intensity mode. The data were analyzed with the 2-dimensional spectrum analysis (2DSA) [Brookes et al., European Biophysics Journal 39(3): 405-414 (2010)] and time invariant noise was subtracted. 2DSA results were further refined with the genetic algorithm analysis (GA) [Brookes et al., Proceedings of the 9th annual conference on Genetic and evolutionary computation 361-368 (2007)] coupled with Monte Carlo (MC) analysis [Demeler et al., UltraScan A Comprehensive Data Analysis Software Package for Analytical Ultracentrifugation Experiments. Analytical Ultracentrifugation—Techniques and Methods. Royal Society of Chemistry: 2005]. Sedimentation coefficient distributions were calculated with the van Holde-Weischet analysis [Demeler et al., Anal. Biochem. 335(2): 279-288 (2004)].
Weight-average sedimentation coefficients determined with the 2DSA-MC and the GA-MC analysis were both 2.26 s.

[4] = Circular dichroism of the peptide (alpha-helical content); type: physicochemical
Description: FIG. 3 depicts circular dichroism of peptide 1 at 21 μM at pH 8 in Tris buffer.
The self-assembly of molecules 1 and 2 into mushroom-shaped nanostructures by coiled-coil formation is an aspect of the disclosure. The self-assembly of the block copolymer 1 was characterized under physiological conditions to probe its propensity to generate […] coiled-coils aggregates.

[5] = Sedimentation equilibrium analytical ultracentrifugation; type: physicochemical; parameters: partial specific volume: unit not given here
Description: The coiled-coil formation was then investigated further by analytical ultracentrifugation, which gives access to the absolute molecular weight of the aggregates in solution and subsequently their aggregation number. Equilibrium experiments were conducted at 23° C. and in 50 mM phosphate buffer containing 150 mM NaCl, pH 7.4. Three loading concentrations (18, 30 and 42 μM) were scanned at 230 nm, and sedimented to equilibrium at 20 krpm, 26.6 krpm, 33.3 krpm, and at 39.9 krpm, resulting in 12 scans which were globally fit to multiple models as described previously [Johnson et al., Biophys. J. 36(3): 575-588 (1981); Demeler et al., UltraScan A Comprehensive Data Analysis Software Package for Analytical Ultracentrifugation Experiments. Analytical Ultracentrifugation—Techniques and Methods. Royal Society of Chemistry: 2005]. The most appropriate model was chosen based on visual inspection of the residual run patterns and based on the best statistics. Statistics were evaluated with the Monte Carlo analysis implemented in UltraScan [Demeler et al., Colloid & Polymer Science 286(2): 129-137 (2008)].
A good fit was obtained when all scans were fitted globally to a single ideal species model (RMSD=7.3631e-03, see FIG. 4). A fixed molecular weight distribution model with 100 molecular weight slots between 10,000 and 50,000 Dalton provided slightly better statistics (RMSD=4.6435e-03) because of the additional degrees of freedom.
This molecular weight was consistent with a hexameric assembly of 1. […] Since both sedimentation velocity and sedimentation equilibrium experiments only measure the buoyant molecular weight of the sample, errors can be introduced when the partial specific volume is in error. The partial specific volume of 1 was not determined in an independent measurement, but it is reasonable to assume that due to the presence of the PEG2000 chain, the partial specific volume is actually higher than was estimated. The partial specific volume was therefore also fitted using the single species ideal equilibrium model, holding the molecular weight fixed at the theoretical estimate of 39,921 Daltons and determined a partial specific volume of […], which is reasonable considering the presence of the PEG2000 chain.

[6] = fixed molecular weight distribution model, Monte Carlo analysis

For “2: Coiled-coil peptide (SEQ ID NO: 1) with spermine unit and mPEG5000-maleimide conjugated to an N-terminal cysteine residue ({C(mPEG5000-maleimide)}-REGVAKALRAVANALHYNASALEEVADALQKVKM; also: spermine unit, site not given here) [compound 2]”, which “average length of complexes with plasmid pBR322” value [1] is on record?
Its value is “around 706 nm”.

What about the “morphology of complexes with plasmid pBR322” value [1] of the same compound?
Its value is “only filamentous complexes were observed”.

And the “morphology of complexes with short DNA fragments” value [2]?
Its value is “rodlike morphology and having predominantly the length of the DNA template”.

And the “morphology of complexes with DNA fragments above 300 bp” value [2]?
Its value is “homogenous rods having predominantly a length corresponding to the DNA template folded in two”.

And the “peptide concentration at which no free DNA can be detected” value (1200 bp DNA fragment)?
The value was 20 µM.

What about the “peptide molecules for one molecule of DNA at full binding” value (1200 bp DNA fragment) of the same compound?
The value was “approximately 1600”.

And the “peptides per base pair at full binding” value (1200 bp DNA fragment)?
The value was 1.3.

For `NCCCNCCCCNCCCN` [spermine], which “binding constant to nucleic acid” value (nucleic acid) is on record?
Its value is “micromolar range”.

For “peptide 1: Coiled-coil peptide (SEQ ID NO: 1) with C-terminal lysine-linked spermine DNA binding unit and PEG2000 carboxylic acid coupled to N-terminus ({PEG2000 carboxylic acid}-REGVAKALRAVANALHYNASALEEVADALQKVKM; not fully specified (C-terminus))”, which “morphology of complexes with plasmid pBR322” value [1] is on record?
The value was “mixture of rods, branched and toroidal complexes”.

And the “morphology of complexes with short DNA fragments” value [2]?
Its value is “rodlike morphology and having predominantly the length of the DNA template”.

What about the “morphology of complexes with DNA fragments above 300 bp” value [2] of the same compound?
The value was “mixture of the expected filamentous complexes of different length and toroidal complexes”.

And the “peptide concentration at which no free DNA can be detected” value (1200 bp DNA fragment)?
Its value is 20 µM.

What about the “peptide molecules for one molecule of DNA at full binding” value (1200 bp DNA fragment) of the same compound?
Its value is “approximately 1600”.

What about the “peptides per base pair at full binding” value (1200 bp DNA fragment) of the same compound?
Its value is 1.3.

What about the weight-average sedimentation coefficient ([3]; 2DSA-MC and GA-MC analysis) of the same compound?
Its weight-average sedimentation coefficient is 2.26 s.

What about the frictional ratio ([3]; GA-MC analysis) of the same compound?
Its frictional ratio is 1.370.

What about the “molecular weight of single species (94% of the signal)” value ([3]; GA-MC analysis) of the same compound?
The value was 33.74 kDa.

What about the weight-average sedimentation coefficient ([3]; van Holde-Weischet analysis, 50 krpm, 23° C.) of the same compound?
The weight-average sedimentation coefficient was 2.28 s.

And the alpha-helical content ([4]; before addition of DNA, 21 μM, pH 8, Tris buffer)?
Its alpha-helical content is 36%.

What about the alpha-helical content ([4]; upon addition of DNA) of the same compound?
Its alpha-helical content is 53%.

What about the “molecular weight of the species in solution, single ideal species fit” value ([5]; 23° C., 50 mM phosphate buffer, 150 mM NaCl, pH 7.4, 18, 30 and 42 μM) of the same compound?
Its value is 33.38 kDa.

What about the “oligomeric state in solution” value ([5]; concentrations between 18 and 42 μM) of the same compound?
The value was “hexamer or heptameric oligomer”.

What about the partial specific volume ([5]; fitted with single species ideal equilibrium model, molecular weight fixed at 39,921 Daltons) of the same compound?
Its partial specific volume is 0.809.

And the Z-average molecular weight [5, 6]?
Its Z-average molecular weight is 36.28 kDa.

What about the number-average molecular weight [5, 6] of the same compound?
Its number-average molecular weight is 32.34 kDa.

What about the weight-average molecular weight [5, 6] of the same compound?
Its weight-average molecular weight is 34.67 kDa.
